Reference: the supplement of paper PMC9170038

Tested on: MS2 coat protein
Experiment: apparent KD of MS2 coat protein; designed switch direction (-1 OFF switch, 1 ON switch): 1; higher = weaker reporter binding
Procedure, shortened: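 Apparent KD, taken as the median over clusters for each design, was obtained by curve-fitting normalised cluster fluorescence. Designed RNA switches had been transcribed on Illumina chips by stalled E. coli RNA polymerase and titrated with SNAP-549-labelled MS2 coat protein, doubling from 0.7 or 1.5 nM to 3 µM.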

[1] = input ligand: microRNA oligo, concentration not stated
[2] = Eterna round: R95, input ligand: FMN 200 uM
[3] = Eterna round: R95, input ligand: microRNA oligo, concentration not stated
[4] = Eterna round: R95, input ligand: none

Sequence | apparent KD of MS2 coat protein (input ligand: FMN 200 uM) | apparent KD of MS2 coat protein [1] | apparent KD of MS2 coat protein (input ligand: none) | apparent KD of MS2 coat protein [2] | apparent KD of MS2 coat protein [3] | apparent KD of MS2 coat protein [4]
GCUAGGAAUAAAGCCAACAUGAGGAUCACCCAUGUAUGUUGGUAGGAUAUCGUAUGCAAAGCAUACGAGAAGGGCUAACCUAGC [Mat - Same State NG 3 - JL Mod - D69] (Eterna round: R96, puzzle: Same State NG 3) | 71.4 nM | 49.5 nM | 64.8 nM | – | – | –
GCUCAUAGUAUAUGGGUACAAGCUUUUUGACAUGAGGAUCACCCAUGUACUCGUCUUAUGUGCAGUCCGUAGACUGC [JL-shm-2.21 Brourd mod] (puzzle: Sensor for hsa-mir-208a) | – | – | – | 104 nM | 17.3 nM | 137 nM
GCUCGAUGAGCGUCCUACAUGAGGAUCACCCAUGUUCGUGGGCAGGAUAUUUACAUGCAGAGUGUAGAGAAGGGCCCAUCGAGC [SameState NG3 #65] (Eterna round: R96, puzzle: Same State NG 3) | 546 nM | 482 nM | 477 nM | – | – | –
GCUCGCACGAUGACCCACAUGAGGAUCACCCAUGUGUGUGGGCAGGAUAUCUAGAUUAAGGAUGUAGAGAAGGGUUGAGCGAGC [SameState NG3 #24] (Eterna round: R96, puzzle: Same State NG 3) | 513 nM | 133 nM | 138 nM | – | – | –
GCUCGUAUGAUGACCGACAUGAGGAUCACCCAUGUGUGUCGGUAGGAUAUCUAUAUUAAGGAUAUAGAGAAGGGCCGAACGAGC [SameState NG3 #17] (Eterna round: R96, puzzle: Same State NG 3) | 31.4 nM | 62.9 nM | 92.9 nM | – | – | –
GCUUGCGGCGCAGGAUAUGGGUGCCUGUACAUGAGGAUCACCCAUGUUAAGGGACGGAUUACGAACCAGAAGGGCGUGGCGGGC [Ceerce] (Eterna round: R96, puzzle: Same State NG 2) | 47.8 nM | 108 nM | 430 nM | – | – | –
GGAAUAUGAUGUUACAUGAGGAUCACCCAUGUAGUAAUAACUAAGGAUAUCUGAGGAGGAGGAGAAGAGAAGGUAGGAUCAUAA [AK SSNG3-V2-10] (Eterna round: R96, puzzle: Same State NG 3) | 23.8 nM | 22.2 nM | 33.2 nM | – | – | –
GGAAUCUCCAGAGAGGAUAUGCGGCGUUAAACAUGAGGAUCACCCAUGUCCUUCGAAUGGGUAACGCAGAAGGCUCUACGGUUCC [Shapeless] (puzzle: Same State 2) | – | – | – | 115 nM | 594 nM | 1220 nM
GGAGAGAGAGCGCAGGAUAUUUAAGGAGAAACAUGAGGAUCACCCAUGUGAGAGAGAGAGGAGAGAGAGAAGGGUGAGAGAGAGG [Altered State 2-16 - Jieux - Same State 2] (puzzle: Same State 2) | – | – | – | 26.7 nM | 23.9 nM | 36.2 nM
GGAGCCAAGGCAGGAUAUUCAUAUUAAAUACAUGAGGAUCACCCAUGUUAGGCCAGAAGGCCUUGGGAGAAGGGCCAUGGCUCG [Xeonanis - 13 mod20] (Eterna round: R96, puzzle: Same State NG 2) | 17 nM | 34.1 nM | 52.5 nM | – | – | –
GGAGCCAAGGCAGGAUAUUCAUAUUAAAUGACAUGAGGAUCACCCAUGUUGGCCAGAAGGCCAUGGGAGAAGGGCCAUGGCUCG [Xeonanis - 13 mod23] (Eterna round: R96, puzzle: Same State NG 2) | 41.3 nM | 127 nM | 166 nM | – | – | –
GGAGCCAAGGCAGGAUAUUCAUUAUAAAUAACAUGAGGAUCACCCAUGUUGGCCAGAAGGCCAUGGGAGAAGGGCCAUGGCUCG [Xeonanis - 13 mod24] (Eterna round: R96, puzzle: Same State NG 2) | 17.7 nM | 73.7 nM | 105 nM | – | – | –
GGAGCCGGCACCGAGGAUAUUCAUAUUAAAACAUGAGGAUCACCCAUGUACCGGAGAACCGGUUGGGAGAAGGCGGAUCGGCUCG [Xeonanis - 24] (puzzle: Same State 2) | – | – | – | 35.4 nM | 333 nM | 596 nM
GGAGCCGGCCUAGGAUAUUUCAUAAAAACACAUGAGGAUCACCCAUGUAGGCCAGAAGGCCUUGGGAAGAAGGAGGUCGGCUCC [Loop Effect - C29] (Eterna round: R96, puzzle: Same State NG 2) | 10.6 nM | 18.3 nM | 23.6 nM | – | – | –
GGAGCCGGCCUAGGAUAUUUCAUAAAAAUACAUGAGGAUCACCCAUGUAGGCCAGAAGGCCUUGGGAAGAAGGAGGUCGGCUCC [Loop Effect - U29] (Eterna round: R96, puzzle: Same State NG 2) | 10.7 nM | 15 nM | 17.3 nM | – | – | –
GGAGCCGGCCUAGGAUAUUUCAUGAAAAAACAUGAGGAUCACCCAUGUAGGCCAGAAGGCCUUGGGAAGAAGGAGGUCGGCUCC [Loop Effect - G24] (Eterna round: R96, puzzle: Same State NG 2) | 32.1 nM | 151 nM | 472 nM | – | – | –
GGAUGACGGACAGGAUAUUGAUUCUAAUGGUUUCAAGAAGGGUCUUCGAUAUAAACGACCAGUUACAUGAGGAUCACCCAUGUU [JR_SSNG1_Sub033] (Eterna round: R96, puzzle: Same State NG 1) | 25.9 nM | 66 nM | 45 nM | – | – | –
GGAUGAUAAAUAGGAUAUUAAUUGUAAUUAGGUUAAGAAGGAUUAAUGAUUUAAACGACCAGUUACAUGAGGAUCACCCAUGUU [JR_SSNG1_Sub088] (Eterna round: R96, puzzle: Same State NG 1) | – | 108 nM | – | – | – | –
GGAUGAUAGACAGGAUAUUGAUUGUAAUUAGGACAAGAAGGGUCAAUGAUUUAAACGACCAGUUACAUGAGGAUCACCCAUGUU [JR_SSNG1_Sub026] (Eterna round: R96, puzzle: Same State NG 1) | 55.7 nM | 34 nM | 55.3 nM | – | – | –
GGCCAGAGUCAAGGAUAUGCUACCGUUUCGGUAGCAGAAGGUGAUCACAUGAGGAUCACCCAUGUAUACGCUGGGAAGCGGGCC [JL SSNG1 3.65] (Eterna round: R96, puzzle: Same State NG 1) | 163 nM | 155 nM | 119 nM | – | – | –
GGCGUAUAAACAUGAGGAUCACCCAUGUUGCGGAGACGCAAUGAGGAUAUCGAUGGGUUUCCCGUCGAGAAGGCGUGGGUCGCC [JL SSNG3 3.95] (Eterna round: R96, puzzle: Same State NG 3) | 22.3 nM | 24.6 nM | 40.2 nM | – | – | –
GGGAGACCUCAAGGAUAUGCUACCGUUUCGGUAGCAGAAGGUGAUCACAUGAGGAUCACCCAUGUAUGCAUGCGUGAGCGUGCU [JL SSNG1 3.58] (Eterna round: R96, puzzle: Same State NG 1) | 79.4 nM | 11.6 nM | 67.8 nM | – | – | –
GGUACAAAUACAGGAUAUGCUAUCCUUUGGGUAGCAGAAGGGUGGUAACAUGAGGAUCACCCAUGUGUGCCAGGGCGUGAGCCC [JL SSNG1 1.98] (Eterna round: R96, puzzle: Same State NG 1) | 387 nM | 206 nM | 657 nM | – | – | –
GGUAGGUUACUACCAAACAUGAGGAUCACCCAUGUAAGUGGGAAGGAUAUGGUACCUAUUUGGUACCAGAAGGUCCAAUUAAUU [Fiskers NG3ss - 3] (Eterna round: R96, puzzle: Same State NG 3) | 228 nM | 111 nM | 720 nM | – | – | –
GGUAGGUUACUACCAAACAUGAGGAUCACCCAUGUAAGUGGGAAGGAUAUGGUACCUUUUAGGUACCAGAAGGUCCAUAUAAUU [JL Fiskers NG3ss - 2 mod 6] (Eterna round: R96, puzzle: Same State NG 3) | 177 nM | 2450 nM | 3220 nM | – | – | –
GGUAGGUUACUACCAACACAUGAGGAUCACCCAUGUUUUGGGAAGGAUAUGGUACCUAUUUGGUACCAGAAGGUCCAGUUAAUG [salish99_SSNG3_r04_701] (Eterna round: R96, puzzle: Same State NG 3) | 87 nM | 161 nM | 122 nM | – | – | –
GGUAGGUUACUACCAACACAUGAGGAUCACCCAUGUUUUGGGAAGGAUAUGGUACCUAUUUGGUACCAGAAGGUCCAGUUAAUU [Fiskers NG3ss - 17] (Eterna round: R96, puzzle: Same State NG 3) | 47.4 nM | 66.6 nM | 69.5 nM | – | – | –
GGUAGGUUACUACCAAUACAUGAGGAUCACCCAUGUUAUCAUGAGGAUAUGGUACCUAUUUGGUACCAGAAGGCAUGUAUAAUU [Fiskers NG3ss - 19] (Eterna round: R96, puzzle: Same State NG 3) | 43.6 nM | 62.6 nM | 60.5 nM | – | – | –
GGUAGGUUACUACCAAUCUACAUGAGGAUCACCCAUGUGUAGGAGGAUAUGGUACCUAUUUGGUACCAGAAGGCCUAAUUAAUU [Fiskers NG3ss - 9] (Eterna round: R96, puzzle: Same State NG 3) | 117 nM | 96.7 nM | 111 nM | – | – | –
GGUAUCGGCACAGGAUAUGCUAUCCUUUGGGUAGCAGAAGGGUGGACAUGAGGAUCACCCAUGUAGGUGCCAGGGCGUGAGCCC [JL SSNG1 1.87] (Eterna round: R96, puzzle: Same State NG 1) | 2490 nM | 26.3 nM | 3550 nM | – | – | –
